This note sets out measurements from paper PMC7720844.

One test has as its target USP5 (UniProt P45974). The test is described as follows: anti-myc co-IP, immunoblot. Conditions: reference: wild type.
Another test addresses WTAP (UniProt Q15007). The test is described as follows: co-IP, immunoblot. Conditions: reference: wild type; sites S43,S50,S525. On the technique in general: Immunoblotting shows a protein as a band on a membrane.

In the case of METTL3 (from UniProt Q86U44) S43A, in the test with USP5 (sites S43), the “binding against the reference” value is on record as “weaker”. For the substance “METTL3 (from UniProt Q86U44) 3A (S43A/S50A/S525A)”, the “binding against the reference” value with WTAP is “weaker”.

Take METTL3 (from UniProt Q86U44) S50A: the “binding against the reference” value in the test with USP5 (sites S50) is given as “weaker”. On to METTL3 (from UniProt Q86U44) S525A, for which the “binding against the reference” value with USP5 (sites S525) was “weaker”.
